Common to all, as to format: biochemical
A short description of test [1]: Diels-Alder activity assay with purified protein, LC-MSMS product detection. The following applies: 0.1 mM diene, 3 mM dienophile, PBS, 298K, 20 μM protein. The protocol: The observed velocity for each mutant was normalized by the velocity of DA—20—00 in order to determine the effective rate enhancement conferred by each mutation. The reactions were done at 1 mM diene, and 10 mM dienophile, PBS, 298K, and 100 μM protein.
Mutations showing enhanced activity on DA—20—04 were sequenced, grown large scale, and assayed. The assay was done at 0.1 mM dieine, 3 mM dienophile, PBS, 298K, and 20 μM protein.
The Diels-Alder reactions were performed in PBS, at 25° C., with 4% DMSO. The DMSO came from the diene, for which the stock solution (100 mM) was made in DMSO and always diluted such that the final reaction would contain 4% DMSO. After incubation of the desired amount of diene and dienophile in the presence or absence of the protein, time points were taken of the reaction (5 μL) and quenched in a solution of 80:20 acetonitrile:water with 0.1% formic acid and 1 mM Benzoic Acid (95 μL). This reaction was incubated for 5 minutes and then the precipitated protein filtered using a Millipore multiscreen solvinert filter plate (Product Number: MSRLN0450). 20 μL of the filtered quench solution was then injected and analyzed using a liquid chromatography-tandem mass spectroscopy (LC-MSMS) assay.
A total of 43 variants were assayed using the standard activity assay. The observed activities are described in Table 2. In Table 2, the Expression column provides the number of times the mutant was expressed; the Observed column reports the raw signal level out of the mass-spec for the product (the Observed column is not normalized nor background corrected); the Concentration column provides the concentration of the protein after large-scale expression. […]

The next test in a line: Turnover number. The following applies: high substrate concentrations: 3 mM diene, 100 mM dienophile, 25 μM enzyme, PBS, 298K. The method, then: The reaction was carried out in 3 mM diene, 100 mM dienophile, 25 μM enzyme, in PBS at 298K. Turnover number was calculated by subtracting the product formed in the background reaction from the product formed in the enzymatic reaction. This enzyme-produced product was then divided by the protein concentration to determine turnover number.
To quantify the number of turnovers reached before the DA—20—10 was inactivated, a reaction was setup with 25 μM enzyme, 3 mM diene, 100 mM dienophile in a PBS solution and incubated for 160 hours. Time points were taken, quenched, and filtered, and then analyzed using the liquid chromatography mass-spectroscopy assay. A standard curve ranging from 4 mM to 0.03 mM was used to quantify the amount of product produced.

Test [2] is described as follows: Stereospecificity, chiral column LC-MSMS. The method, then: The transition states which lead to the four possible ortho-stereoisomers are shown above the reaction chromatograms. Background reaction: 2 mM diene and 70 mM dieneophile in a PBS solution for 24 hours at 298 K. DA—20—10 reaction: 50 μM protein, 0.5 mM diene, and 10 mM dieneophile in a PBS solution for 48 hours at 298K. The four stereoisomers were separated using liquid chromatography (11), and samples injected onto a Daicel AD-H column.
A liquid chromatography-tandem mass spectroscopy with a chiral column was used to detect each of the four experimentally observed stereoismers. The chiral column used in this work was the same as in (10), so it was predicted that the product peaks would come out in the same order. To validate that the endo and exo products came out as expected each was synthesized, and run either separately or together to identify the endo and exo peaks. The peaks observed come out in the same order and same time as reported in Cannizzaro et al. (10).
In order to quantify the stereospecificity of DA—20—10, a reaction with 2 mM diene, 70 mM dieneophile, PBS, pH 7.4, in the presence or absence of 80 μM protein was run for 24 hr at 298K. […] The reactions were shaken for 5 minutes, centrifuged for 5 minutes, after which the organic layer was removed and analyzed with a LC-MSMS assay. […]

B1: DA_20_10: DA_20_04 with A272N, Q149R, A173C (protein)
chain: MEIPVIEPLFTKVTEDIPGATGPVFDKNGDFYIVAPYVEVNGKPAGEILRIDLKTGKKTVICKPEVNGYGGIPIGCQCDRDANQLFVADMRLGLLVVQTDGTFEEIAKKDSEGRRMQGCAYCAFDYEGNLWITAPAGEVAPADFTISLREKFGSIYCFTTDGQMIQVDTAFQCPAGIAVRHMNDGRPYQLIVAEQPTKKLWSYDIKGPAKIENKKVWGHIPGTHKGGAAGMDFDEDNNLLVANWGSSHIEVFGPDGGQPKMRIRCPFEKPANLHFKPQTKTIFVTEHENNAVWKFEWQRNGKKQYCETLKFGIFGSLEHHHHHH
modifications: Enzyme catalyst for Diels-Alder reaction
notes: DA_20_04 with A272N, Q149R, A173C
B1: in test [1], the “product formed per hour” value is given as 154.9 nM of product/hour. The “turnovers before the enzyme loses activity” value in “Turnover number” was “more than 30 turnovers”. Moreover, the “share of the expected 3R,4S product” value in test [2] is above 97%. In addition, the stereospecificity entry in test [2] (2 mM diene, 70 mM dienophile, PBS, pH 7.4, 80 μM protein, 24 hr, 298K) is on record as “greater than 97 % ee”.
